# Test results: patent US20210324374, “COMPOSITIONS AND METHODS FOR SCREENING APTAMERS” (Chan Zuckerberg Biohub, Inc., published 2021)
# B1: K SL2-B positive control (ssDNA)
# DNA: AGCAGCACAGAGGTCAGATGAATTGGGCCCGTCCGTATGGTGGGTCCTATGCGTGCTACCGTGAA
# Target: VEGF (vascular endothelial growth factor) (UniProt P15692-4 P15692-4:27-191)
# Experiment: N2A2 flow-cell fluorescence, natural DNA
# Conditions: tags: Dylight 650 NHS labelled; R&D Systems; chain copies: 2
# Text: We used N2A2 to measure the VEGF binding affinity of all sequences in these pools simultaneously. We performed three separate experiments: 1) VEGF binding to the natural DNA pools, 2) VEGF binding to non-natural DNA modified with tryptophan, and 3) VEGF binding to non-natural DNA modified with tyrosine. In addition to the six aptamer pools described above (R0-R5), we included three other DNA sequences on the flow cell for each experiment: (1) a known “fiducial mark” sequence with a fluorescently-labeled complement for intensity calibration, (2) a “positive control” sequence based on a published aptamer known to bind to VEGF, and (3) a “negative control” sequence known not to bind to VEGF. The same input DNA stocks and labeled VEGF protein were used for all three experiments, but new sequencing cartridges and flow cells were used for each separate experiment. Other details of experimental setup of the sequencing cartridge, protein titrations, and software and hardware modifications have previously been described in the provided grant document and manuscript. VEGF protein was labeled with Dylight647 fluorophore to enable imaging on the N2A2.
# Chain of VEGF (vascular endothelial growth factor) (P15692 other isoform, or with tags, fused parts or gaps): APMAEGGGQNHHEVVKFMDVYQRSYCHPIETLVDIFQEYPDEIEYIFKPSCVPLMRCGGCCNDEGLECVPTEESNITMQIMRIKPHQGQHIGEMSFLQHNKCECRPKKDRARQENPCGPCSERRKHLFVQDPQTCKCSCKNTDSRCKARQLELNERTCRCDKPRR
binder,measurement,value
B1,binding result,binds
